From publication PMC9482650, “Quantitative fragmentomics allow affinity mapping of interactomes” (Nature Communications, 2022)
Residue numbers refer to the chain shown, from its start. Values belong to the binder of their own block, whether it stands above or below them.

Assays:
Experiment in all cases: holdup assay
Parameters in all cases: key: below the threshold = too weak to quantify, mostly under pKd 3.1 to 4
[1] = biological target: T1, MPDZ_5, O75970
T1 sequence (O75970 695-796, limits assumed, looked up): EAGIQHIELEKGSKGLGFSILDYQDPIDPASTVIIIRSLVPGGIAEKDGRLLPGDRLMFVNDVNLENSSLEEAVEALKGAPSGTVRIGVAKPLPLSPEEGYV

[2] = biological target: GRASP, Q7Z6J2
[3] = biological target: GRIP2_3, Q9C0E4
[4] = biological target: T2, SNTG2, Q9NY99
T2 sequence (Q9NY99 68-166, limits assumed, looked up): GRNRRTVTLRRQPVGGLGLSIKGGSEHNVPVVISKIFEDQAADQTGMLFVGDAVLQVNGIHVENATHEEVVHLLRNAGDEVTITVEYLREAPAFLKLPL

[5] = biological target: MAGI3_2, Q5TCQ9
[6] = biological target: GRIP2_5, Q9C0E4
[7] = biological target: T3, PARD3B_1, Q8TEW8
T3 sequence (Q8TEW8 196-299, limits assumed, looked up): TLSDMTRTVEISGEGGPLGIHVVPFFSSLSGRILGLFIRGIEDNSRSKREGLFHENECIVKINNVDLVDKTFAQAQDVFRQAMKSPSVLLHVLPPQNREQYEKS

[8] = biological target: DLG1_1, Q12959
[9] = biological target: MAST2, Q6P0Q8
[10] = biological target: T4, ARHGAP21, Q5T5U3
T4 sequence (Q5T5U3 45-169, limits assumed, looked up): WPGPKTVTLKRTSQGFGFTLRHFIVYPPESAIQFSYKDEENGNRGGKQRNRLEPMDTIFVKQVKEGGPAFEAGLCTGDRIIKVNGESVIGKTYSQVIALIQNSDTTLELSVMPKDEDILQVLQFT

[11] = biological target: FRMPD4, Q14CM0
[12] = biological target: T5, PCLO, Q9Y6V0
T5 sequence (Q9Y6V0 4491-4600, limits assumed, looked up): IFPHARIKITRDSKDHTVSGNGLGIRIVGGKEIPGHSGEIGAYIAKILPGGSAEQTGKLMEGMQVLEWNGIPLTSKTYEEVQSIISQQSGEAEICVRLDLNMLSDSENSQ

[13] = biological target: Inadl_5, Q8NI35
[14] = biological target: IL16_3, Q14005
[15] = biological target: T6, DLG3_3, Q92796
T6 sequence (Q92796 374-475, limits assumed, looked up): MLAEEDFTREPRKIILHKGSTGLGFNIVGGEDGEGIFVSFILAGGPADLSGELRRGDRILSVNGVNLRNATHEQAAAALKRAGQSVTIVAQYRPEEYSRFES

[16] = biological target: LNX1_3, Q8TBB1
[17] = biological target: TJP1_3, Q07157
[18] = biological target: T7, LIN7B, Q9HAP6
T7 sequence (Q9HAP6 88-185, limits assumed, looked up): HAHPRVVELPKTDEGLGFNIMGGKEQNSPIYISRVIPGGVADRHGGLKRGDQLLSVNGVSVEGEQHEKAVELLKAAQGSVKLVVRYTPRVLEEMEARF

[19] = biological target: T8, LIN7A, O14910
T8 sequence (O14910 103-200, limits assumed, looked up): T7 sequence (Q9HAP6 88-185, limits assumed, looked up) with A2S, I20V, V35I, D42E, Q65H, Q77K, G78D, R89K

[20] = biological target: DLG2_2, Q15700
[21] = biological target: GRIP2_7, Q9C0E4
[22] = biological target: T9, PDZD7_3, Q9H5P4
T9 sequence (Q9H5P4 857-944, limits assumed, looked up): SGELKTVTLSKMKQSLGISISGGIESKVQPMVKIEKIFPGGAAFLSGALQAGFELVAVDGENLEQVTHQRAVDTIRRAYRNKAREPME

[23] = biological target: PICK1, Q9NRD5
[24] = biological target: DLG1_3, Q12959
[25] = biological target: T10, TX1BP3, O14907
T10 sequence (O14907 10-122, limits assumed, looked up): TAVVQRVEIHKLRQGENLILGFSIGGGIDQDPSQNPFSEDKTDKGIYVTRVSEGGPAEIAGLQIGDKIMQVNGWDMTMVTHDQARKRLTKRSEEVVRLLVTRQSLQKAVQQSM

[26] = biological target: DLG1_2, Q12959
[27] = biological target: Inadl_10, Q8NI35
[28] = biological target: LDB3, O75112
[29] = plain residues with an end cap or a label only (N-terminal biotin on a linker: ahx)
[30] = plain residues with an end cap or a label only (N-terminal biotin on a linker: ttds)

Sequence of GRASP, Q7Z6J2 (Q7Z6J2 96-193): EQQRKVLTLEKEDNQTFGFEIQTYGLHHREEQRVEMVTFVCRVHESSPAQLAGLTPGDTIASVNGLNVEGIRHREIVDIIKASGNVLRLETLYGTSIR
Sequence of PICK1, Q9NRD5 (Q9NRD5 17-115): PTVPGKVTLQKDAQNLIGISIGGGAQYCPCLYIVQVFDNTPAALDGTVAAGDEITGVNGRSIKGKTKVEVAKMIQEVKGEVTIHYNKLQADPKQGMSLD
Sequence of GRIP2_3, Q9C0E4 (Q9C0E4 238-339): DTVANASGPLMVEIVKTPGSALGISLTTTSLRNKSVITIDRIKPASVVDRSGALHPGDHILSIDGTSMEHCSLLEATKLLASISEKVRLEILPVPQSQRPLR
Sequence of GRIP2_7, Q9C0E4 (Q9C0E4 934-1023): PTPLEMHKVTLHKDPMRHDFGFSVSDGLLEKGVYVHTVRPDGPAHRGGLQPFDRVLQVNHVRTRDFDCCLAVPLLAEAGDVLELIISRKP
Sequence of MAGI3_2, Q5TCQ9 (Q5TCQ9 398-503): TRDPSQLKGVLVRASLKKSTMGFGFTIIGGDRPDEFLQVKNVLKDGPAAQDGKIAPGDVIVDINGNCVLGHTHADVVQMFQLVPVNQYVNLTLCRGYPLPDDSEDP
Sequence of LNX1_3, Q8TBB1 (Q8TBB1 500-596): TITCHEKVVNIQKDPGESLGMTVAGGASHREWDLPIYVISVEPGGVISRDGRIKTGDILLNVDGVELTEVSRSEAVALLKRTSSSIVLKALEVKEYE
Sequence of LDB3, O75112 (O75112 1-94): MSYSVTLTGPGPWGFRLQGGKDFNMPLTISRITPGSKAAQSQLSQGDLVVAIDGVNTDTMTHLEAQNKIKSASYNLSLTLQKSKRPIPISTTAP
Sequence of DLG2_2, Q15700 (Q15700 189-283): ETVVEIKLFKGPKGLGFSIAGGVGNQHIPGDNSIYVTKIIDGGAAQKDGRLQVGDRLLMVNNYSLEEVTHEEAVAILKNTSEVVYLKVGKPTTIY
Sequence of MAST2, Q6P0Q8 (Q6P0Q8 1099-1202): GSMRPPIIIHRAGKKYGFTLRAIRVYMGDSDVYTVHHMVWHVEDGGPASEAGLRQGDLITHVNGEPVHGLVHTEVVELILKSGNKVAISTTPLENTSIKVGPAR
Sequence of GRIP2_5, Q9C0E4 (Q9C0E4 544-642): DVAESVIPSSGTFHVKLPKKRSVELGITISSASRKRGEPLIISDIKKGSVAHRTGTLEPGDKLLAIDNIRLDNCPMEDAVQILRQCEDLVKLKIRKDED
Sequence of TJP1_3, Q07157 (Q07157 416-512): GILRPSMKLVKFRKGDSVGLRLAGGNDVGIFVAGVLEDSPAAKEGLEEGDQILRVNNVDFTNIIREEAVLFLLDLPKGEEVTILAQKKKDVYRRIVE
Sequence of Inadl_10, Q8NI35 (Q8NI35 1673-1763): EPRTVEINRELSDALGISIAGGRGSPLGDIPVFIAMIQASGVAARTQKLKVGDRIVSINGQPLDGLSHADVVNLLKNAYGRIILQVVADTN
Sequence of IL16_3, Q14005 (Q14005 1107-1207): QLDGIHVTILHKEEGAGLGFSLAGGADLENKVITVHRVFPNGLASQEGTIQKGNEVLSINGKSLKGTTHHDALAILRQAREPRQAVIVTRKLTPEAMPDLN
Sequence of Inadl_5, Q8NI35 (Q8NI35 673-780): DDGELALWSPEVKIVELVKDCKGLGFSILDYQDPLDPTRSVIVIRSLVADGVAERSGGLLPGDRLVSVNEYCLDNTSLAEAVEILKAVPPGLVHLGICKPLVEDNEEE
Sequence of FRMPD4, Q14CM0 (Q14CM0 67-160): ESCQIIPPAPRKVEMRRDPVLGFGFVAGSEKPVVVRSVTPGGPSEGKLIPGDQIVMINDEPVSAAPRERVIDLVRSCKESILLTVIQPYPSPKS

pKd [1, 29]: 3.49
pKd [2, 29]: 3.57
pKd [3, 29]: below the threshold
pKd [4, 29]: 3.6
pKd [5, 29]: 3.58
pKd [6, 29]: below the threshold
pKd [7, 29]: 3.55
pKd [8, 29]: 3.54
pKd [9, 29]: below the threshold
pKd [10, 29]: 3.5
pKd [11, 29]: 3.5
pKd [12, 29]: below the threshold
pKd [13, 29]: below the threshold
pKd [14, 29]: below the threshold
pKd [15, 29]: below the threshold
pKd [16, 29]: below the threshold
pKd [17, 29]: below the threshold
pKd [18, 29]: below the threshold
pKd [19, 29]: 3.52
pKd [20, 29]: below the threshold
pKd [21, 29]: below the threshold
pKd [22, 29]: 4.71
pKd [23, 29]: below the threshold
pKd [24, 29]: below the threshold
pKd [25, 29]: below the threshold
pKd [26, 29]: 3.52
pKd [27, 29]: 3.57
pKd [28, 29]: 3.56
Binder: HNAFLSVTTV [PDZRN4, Q6ZMN7]

pKd [1, 30]: below the threshold
pKd [2, 30]: below the threshold
pKd [3, 30]: below the threshold
pKd [4, 30]: 4.55
pKd [5, 30]: 4.33
pKd [6, 30]: below the threshold
pKd [7, 30]: below the threshold
pKd [8, 30]: 3.87
pKd [9, 30]: 5.16
pKd [10, 30]: below the threshold
pKd [11, 30]: below the threshold
pKd [12, 30]: below the threshold
pKd [13, 30]: below the threshold
pKd [14, 30]: below the threshold
pKd [15, 30]: 4.28
pKd [16, 30]: below the threshold
pKd [17, 30]: below the threshold
pKd [18, 30]: 3.61
pKd [19, 30]: below the threshold
pKd [20, 30]: 3.98
pKd [21, 30]: below the threshold
pKd [22, 30]: 4.45
pKd [23, 30]: below the threshold
pKd [24, 30]: 4.1
pKd [25, 30]: 3.84
pKd [26, 30]: 4.3
pKd [27, 30]: below the threshold
pKd [28, 30]: below the threshold
Binder: EVVHTPETSV [SLC16A3, O15427]
